From doi:10.1101/2021.12.16.473085 (2021)

What was measured:
Experiment in all cases: SPR
hGH Q22H = target: hGH Q22H
hGH S51D = target: hGH S51D
hGH E65Y = target: hGH E65Y
hGH R178F = target: hGH R178F
hGH Q46R = target: hGH Q46R
hGH R178Y = target: hGH R178Y
hGH K41R = target: hGH K41R

B1: human Growth Hormone Receptor (hGHR) (receptor)
chain: FSGSEATAAILSRAPWSLQSVNPGLKTNSSKEPKFTKCRSPERETFSCHWTDEVHHGTKNLGPIQLFYTRRNTQEWTQEWKECPDYVSAGENSCYFNSSFTSIWIPYCIKLTSNGGTVDEKCFSVDEIVQPDPPIALNWTLLNVSLTGIHADIQVRWEAPRNADIQKGWMVLEYELQYKEVNETKWKMMDPILTTSVPVYSLKVDKEYEVRVRSKQRNSGNYGEFSEVLYVTLPQMSQFTCEEDFYFPWLLIIIFGIFGLTVMLFVFLFSKQQRIKMLILPPVPVPKIKGIDPDLLKEGKLEEVNTILAIHDSYKPEFHSDDSWVEFIELDIDEPDEKTEESDTDRLLSSDHEKSHSNLGVKDGDSGRTSCCEPDILETDFNANDIHEGTSEVAQPQRLKGEADLLCLDQKNQNNSPYHDACPATQQPSVIQAEKNKPQPLPTEGAESTHQAAHIQLSNPSSLSNIDFYAQVSDITPAGSVVLSPGQKNKAGMSQCDMHPEMVSLCQENFLMDNAYFCEADAKKCIPVAPHIKVESHIQPSLNQEDIYITTESLTTAAGRPGTGEHVPGSEMPVPDYTSIHIVQSPQGLILNATALPLPDKEFLSSCGYVSTDQLNKIMP
How did the Kd (hGH Q22H) turn out when B1 was run?
Its Kd is 8 nM.

What about the koff (hGH Q22H) of the same binder?
Its koff is 0.0004 s⁻¹.

And the Kd (hGH S51D)?
Its Kd is 0.6 nM.

And the koff (hGH S51D)?
The koff was 0.0007 s⁻¹.

What about the Kd (hGH E65Y) of the same binder?
The Kd was 0.4 nM.

And the koff (hGH E65Y)?
The koff was 0.0003 s⁻¹.

And the Kd (hGH R178F)?
Its Kd is 30 nM.

And the koff (hGH R178F)?
The koff was 0.008 s⁻¹.

What about the Kd (hGH Q46R) of the same binder?
The Kd was 40 nM.

And the koff (hGH Q46R)?
Its koff is 0.0006 s⁻¹.

And the Kd (hGH R178Y)?
The Kd was 20 nM.

And the koff (hGH R178Y)?
The koff was 0.006 s⁻¹.

What about the Kd (hGH K41R) of the same binder?
Its Kd is 20 nM.

And the koff (hGH K41R)?
Its koff is 0.001 s⁻¹.
